IC50 and Kd data for 2 substances are collected here from paper PMC4538835.

Common to all, as to experiment: fluorescence polarisation
(Polarisation of emitted light reports the rotation of a fluorescent probe.)

The target in test [1] is MED25 ACID/PTOV domain (residues 391 to 548) (human) (UniProt Q71SY5).
The target of test [2] is TAMRA-labelled ERM_(38–68) (human) (UniProt P41161).
The target of test [3] is TAMRA-labelled ERM_(38–68) W57L (human) (UniProt P41161).
Test [4] has as its target TAMRA-labelled ERM_(38–68) F47L/W57L (human) (UniProt P41161).

“ERM_(38–68) peptide (unlabelled by dye) (from UniProt P41161 38-68)”: the IC50 in test [1] stood at 1.5 µM. That is a single-digit micromolar value.
On to “MED25 ACID/PTOV domain (residues 391 to 548) (from UniProt Q71SY5 391-548) (domain or fragment)”, for which the results for the Kd in test [2], in test [3] and in test [4] were 0.6 µM, 4.8 µM and 8.3 µM, respectively.

Usually IC50 stands for the concentration that inhibits the measured activity by half. Low values mean greater potency, high ones weaker potency. As a reminder, the Kd is the free concentration of one partner at which half of the binding sites on the other are occupied at equilibrium, for simple one-to-one binding. Higher therefore signals a looser complex.
